Reference: article PMC11578894
pKd: −log10 of the molar value.

Target: His6–Gp54^Bas11 (phage Bas11)
Experiment: ITC; CapRel^SJ46 in the syringe at 200 µM titrated into Gp54^Bas11 in the cell at 10 µM (Gp54^Bas11(G24D) was used at 260 µM); 30 °C; 50 mM HEPES pH 7.5, 500 mM KCl, 500 mM NaCl, 2 mM MgCl2, 1 mM TCEP

- pKd: 6.10
- stoichiometry N: 1
Substance: His6–MBP–CapRel^SJ46 (natural protein)
